Data published in US20240209089A1 (SUZHOU SMARTNUCLIDE BIOPHARMACEUTICAL, published 2024).
Where “and” joins values, the source holds several entries; their conditions need not be identical. Equal entries are not always repeated. Each block holds one binder with its values, some of them ahead of it.

Assays:
CD8α-Fc fusion protein [1] = target: T1, CD8α-Fc fusion protein (human); experiment: ELISA on coated CD8α-Fc, anti-his-HRP, four-parameter fit
T1 construct: also called CD8 α-Fc protein; CD8α-Fc tag antigen
Procedure: (§1) The CD8 α-Fc protein was transiently expressed by HEK293 and purified by protein A affinity chromatography. The plate was coated with the obtained CD8α-Fc protein in a concentration of 0.5 μg/well at 4° C. overnight, and then the gradient dilution series of the obtained anti-CD8α single domain antibody protein was added to react for 1 hour at room temperature. After washing, anti-his horseradish peroxidase labeled antibody was added to react for 1 hour at room temperature. After washing, a chromogenic solution was added, and an absorption value at 450 nm was read. The data processing and plotting analysis were performed by using software SotfMaxPro v5.4. […] Of the 10 selected antibodies (see Table 5 for details), the relative activities of different anti-CD8α single domain antibodies were compared by using C2-cHis as control, so as to reflect the affinity of the antibodies on CD8α. Of the 10 tested antibodies, C37, C42, C46, S5 and S36 have relatively high binding activity.

[2] = target: T2, human CD8α full-length protein (human, UniProt P01732 22-235); experiment: flow cytometry on MC38-CD8α cells, secondary antibody-PE
T2 construct: whole, on cells; The same entry is used for MC38-CD8α transfectants and for human CD8+ T cells from peripheral blood; the assay field says which cells; also called cell surface CD8α; MC38-CD8α cells
Procedure: Mouse colon cancer MC38 cell lines stable transfected with human CD8α full-length protein gene were constructed to obtain MC38 cells (MC38-CD8α cells) stably expressing human CD8α proteins on the cell membrane. Prior to use, the cells were cultured to >90% convergence. The anti-CD8α single domain antibody was used to perform flow cytometry on these cells for quantitative analysis of indirect immunofluorescence staining so as to determine the quantity of receptors on surface of each cell.
The cells were collected and suspended to a concentration of 2.5×10⁶ cells/mL. 200 μL of cell aliquot samples were mixed with 20 μL of primary antibody, and the obtained mixture was incubated for 30 min on ice. The cells were centrifuged, washed and re-suspended, then 5 μL of secondary antibody-PE conjugate was added, and then the above mixture was incubated for 30 minutes on ice. The cells were washed twice, re-suspended and underwent flow cytometry on BD FACSCelesta™. For each tube, at least 5×10⁴ events were collected. All the analyses were single colors, and PE was detected in […].

CD8α-Fc fusion protein [3] = target: T1, CD8α-Fc fusion protein; experiment: ELISA on coated CD8α-Fc, relative to C2-cHis control
Procedure: as §1

CD8α-Fc fusion protein [4] = target: T1, CD8α-Fc fusion protein; experiment: ELISA on coated CD8α-Fc, antibody after exchange into NaHCO3 buffer, relative to the uncoupled antibody as standard
Procedure: (§2) By using PD-10 column (GE), the buffer of the CD8α-cHis single domain antibody (including C37, C46 and S5) was changed to a NaHCO3 buffer solution with a certain pH, and p-SCN-Bn-NOTA (Macrocyclics, article No. B-605) was dissolved into DMSO with a concentration of 25 mg/mL, and the p-SCN-Bn-NOTA solution whose molar was twice that of lysine on the single domain antibody was added into the CD8α single domain antibody, the above materials reacted for a certain time period at room temperature, the conjugated product was purified by PD-10 column (GE) and concentrated by ultrafiltration.
(§3) The activity of the above CD8α-NOTA after labeling was determined by ELISA. The specific method is as follows: the CD8α-Fc fusion protein was placed in the coated plate in a concentration of 5 μg/well at 4° C. overnight. After blocking with 3% BSA at 37° C., samples subjected to gradient dilution (the uncoupled CD8α single domain antibody was a standard substance) were added to act for 1 hour at 37° C. Then, anti-his-HRP (purchased from Abcam Company) was added to react for 1 hour at room temperature. Then, a chromogenic solution was added, and the absorption value at 450 nm was read.

CD8α-cHis fusion protein = target: T3, CD8α-cHis fusion protein (UniProt P01732 22-182); experiment: BLI (ForteBio Octet), biotinylated antibody on SA sensor, CD8α-chis 6.25-100 nM
T3 construct: not shown: C-terminal His tag
Procedure: The anti-CD8α single domain antibody-biontin was fixed on an SA biological sensor. Then, CD8α-chis with a concentration of 6.25-100 nM bound to a nano antibody and then dissociated. The binding dynamic variables of four antibodies C37, C42, C46 and S5 were evaluated and determined by using Octet Data Analysis version 9.0, including Kon, Koff and Kd.

[5] = target: T2, human CD8α full-length protein; experiment: radioligand saturation binding on MC38-CD8 cells, 4 °C, one-site fit
Procedure: (§4) Receptor binding reaction: a radioligand saturation method was used, total binding and non-specific binding groups were included.
(§5) The cells were incubated for 2 h at 4° C. After that, the supernatant was extracted, the cells were washed 6 times with PBS pre-cooled at 4° C., and 200 μL of PBS was added into each well every time. Finally, the filter membrane was collected, the radioactivity count of each tube of sample and standard sample was measured on the γ counter. Finally, saturation curve fitting was performed by using Prism 7.0 (GraphPad Software, Inc.) software according to the single-point binding model, and then KD and Bmax were calculated.

CD8α-Fc fusion protein [6] = target: T1, CD8α-Fc fusion protein; experiment: ELISA on coated CD8α-Fc, NOTA conjugate, relative to the uncoupled antibody as standard
Procedure: as §2, §3

[7] = target: T2, human CD8α full-length protein; experiment: saturation radioligand binding on MC38-CD8 cells, 2 h at 4 °C, one-site fit; panel assigned through the KD of Table 8 (3.8 nM, 125I-SNA006c)
Procedure: as §4, §5

CD8α-Fc fusion protein [8] = target: T1, CD8α-Fc fusion protein; experiment: ELISA on coated CD8α-Fc; C2-cHis is the control (=100)
Procedure: as §1

T2 sequence (P01732 22-235): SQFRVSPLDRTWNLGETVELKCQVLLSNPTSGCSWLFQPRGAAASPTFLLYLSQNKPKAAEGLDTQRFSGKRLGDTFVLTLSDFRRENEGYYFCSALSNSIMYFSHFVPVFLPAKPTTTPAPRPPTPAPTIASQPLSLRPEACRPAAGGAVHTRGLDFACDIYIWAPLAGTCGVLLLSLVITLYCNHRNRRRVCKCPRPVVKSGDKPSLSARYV
T3 sequence (P01732 22-182): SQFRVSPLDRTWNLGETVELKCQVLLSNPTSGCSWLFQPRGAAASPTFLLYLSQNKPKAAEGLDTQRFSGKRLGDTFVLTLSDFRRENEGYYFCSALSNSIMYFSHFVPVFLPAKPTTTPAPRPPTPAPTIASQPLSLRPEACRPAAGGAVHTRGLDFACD
T1 sequence (chain, as listed by the source): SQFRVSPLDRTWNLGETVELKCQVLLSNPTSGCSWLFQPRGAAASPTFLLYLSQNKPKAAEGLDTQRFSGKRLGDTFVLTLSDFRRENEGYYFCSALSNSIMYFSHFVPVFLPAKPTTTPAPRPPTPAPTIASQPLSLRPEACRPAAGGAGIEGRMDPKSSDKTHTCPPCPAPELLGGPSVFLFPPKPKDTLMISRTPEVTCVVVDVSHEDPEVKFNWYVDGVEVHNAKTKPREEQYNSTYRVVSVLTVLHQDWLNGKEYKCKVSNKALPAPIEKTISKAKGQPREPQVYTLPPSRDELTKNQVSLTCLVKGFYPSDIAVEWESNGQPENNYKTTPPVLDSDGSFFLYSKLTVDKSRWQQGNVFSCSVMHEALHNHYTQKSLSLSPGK

Kd [5]: 1.5 nM
B2: ^125I-SNA006d (VHH)
VHH: QVQLVESGGGLVQAGGSLRVSCAASGGTFSSTAMGWFRQAPGKEREFVAAISWSGGYTYYADSVRGRFTISRDNALNTVSLQMNSLKPEDTAVYYCAADISGLDTVAAGIFTEPNIDYWGKGTLVTVSS
modifications: 125I label by the chloramine T method; labelled residues not stated

Kd [7]: 3.84 nM
Kd [5]: 3.8 nM
B4: ^125I-SNA006c (VHH)
VHH: QVQLVESGGGLVQAGGSLRLSCAASGVTFDDLAIGWFRQVPGKGREGVSTIGTSDGTAYYADSVKGRFTISSDNAKNTVYLQMNSLKPEDTAVYYCAVDLDYGLGSLLPMGYDYWGQGTQVTVSS
modifications: 125I label by the chloramine T method; labelled residues not stated

Relative activity of CD8α-cHis-NOTA (%) (CD8α-Fc fusion protein [6]): 20%
B5: C46-cHis-NOTA (VHH)
VHH: QVQLVESGGGLVQAGGSLRLSCAASGVTFDDLAIGWFRQVPGKGREGVSTIGTSDGTAYYADSVKGRFTISSDNAKNTVYLQMNSLKPEDTAVYYCAVDLDYGLGSLLPMGYDYWGQGTQVTVSS
modifications: p-SCN-Bn-NOTA coupled (lysine); sites and number not stated
notes: also called CD8α-cHis-NOTA (C46)

EC50 (CD8α-Fc fusion protein [1]): 1.82 ng/mL
Positive rate (%) [2]: 99.5%
Relative activity (%) (CD8α-Fc fusion protein [3]): 175%
Relative activity of CD8α-cHis-NaHCO3 (%) (CD8α-Fc fusion protein [4]): 76%
Kd (CD8α-cHis fusion protein): 1.08 nM
koff (CD8α-cHis fusion protein): 0.000271 s⁻¹
kon (CD8α-cHis fusion protein): 251000 M⁻¹ s⁻¹
B6: C46-cHis antibody (VHH)
VHH: QVQLVESGGGLVQAGGSLRLSCAASGVTFDDLAIGWFRQVPGKGREGVSTIGTSDGTAYYADSVKGRFTISSDNAKNTVYLQMNSLKPEDTAVYYCAVDLDYGLGSLLPMGYDYWGQGTQVTVSS
notes: HEK293 construct; an E. coli preparation is also described; Biotinylated for the ForteBio assay; also called SNA006c; SNA006-c

Kd [5]: 0.46 nM
B11: ^125I-SNA006a (VHH)
VHH: QLQLVESGGGLVQAGGSLRLSCAASGLTFEDYAIGWFRQAPGKEREGISCIRIYDGNTYSAESVKGRFTISSDNAKNQVYLQINTLKPEDTAVYYCAAGSYYSCSVYPDYDMDYWGKGTLVTVSS
modifications: 125I label by the chloramine T method; labelled residues not stated

Relative activity of CD8α-cHis-NOTA (%) (CD8α-Fc fusion protein [6]): 77%
B12: C37-cHis-NOTA (VHH)
VHH: QLQLVESGGGLVQAGGSLRLSCAASGLTFEDYAIGWFRQAPGKEREGISCIRIYDGNTYSAESVKGRFTISSDNAKNQVYLQINTLKPEDTAVYYCAAGSYYSCSVYPDYDMDYWGKGTLVTVSS
modifications: p-SCN-Bn-NOTA coupled (lysine); sites and number not stated
notes: also called CD8α-cHis-NOTA (C37); NOTA-CD8α single domain antibody precursor

Continued, binder first:

B1: S5-cHis antibody (VHH)
VHH: QVQLVESGGGLVQAGGSLRVSCAASGGTFSSTAMGWFRQAPGKEREFVAAISWSGGYTYYADSVRGRFTISRDNALNTVSLQMNSLKPEDTAVYYCAADISGLDTVAAGIFTEPNIDYWGKGTLVTVSS
notes: HEK293 construct; an E. coli preparation is also described; Biotinylated for the ForteBio assay; also called SNA006d; SNA006-d
EC50 (CD8α-Fc fusion protein [1]): 2.28 ng/mL
Positive rate (%) [2]: 99.7%
Relative activity (%) (CD8α-Fc fusion protein [3]): 180%
Relative activity of CD8α-cHis-NaHCO3 (%) (CD8α-Fc fusion protein [4]): 98%
Kd (CD8α-cHis fusion protein): 2.87 nM
koff (CD8α-cHis fusion protein): 0.000445 s⁻¹
kon (CD8α-cHis fusion protein): 155000 M⁻¹ s⁻¹

B3: S5-cHis-NOTA (VHH)
VHH: QVQLVESGGGLVQAGGSLRVSCAASGGTFSSTAMGWFRQAPGKEREFVAAISWSGGYTYYADSVRGRFTISRDNALNTVSLQMNSLKPEDTAVYYCAADISGLDTVAAGIFTEPNIDYWGKGTLVTVSS
modifications: p-SCN-Bn-NOTA coupled (lysine); sites and number not stated
notes: also called CD8α-cHis-NOTA (S5)
Relative activity of CD8α-cHis-NOTA (%) (CD8α-Fc fusion protein [6]): 105%

B7: S13-cHis antibody (VHH)
VHH: QLQLVESGGGLVQPGGSLRLSCVVSGSIFAINTMGWYRQAPGKQRELVATMHSYGSTNYADSVKGRFTISRDNAKKTVYLQMNSLKPADTAVYYCHADDTGWGTVDSWGQGTQVTVSS
notes: HEK293 construct; an E. coli preparation is also described
EC50 (CD8α-Fc fusion protein [1]): 2.89 ng/mL
Positive rate (%) [2]: 96.3%
Relative activity (%) (CD8α-Fc fusion protein [3]): 142%

B8: C24-cHis antibody (VHH)
VHH: QVQLVESGGGLVQPGGSLRLSCAASGPIFSINTMGWYRQAPGKQRELVATMHSTGSTNYADSVKGRFTISRDNAKKTVYLQMNSLKPDDTAVYYCHVDDTGWGTVDSWGQGIQVTVSS
notes: as for B7
EC50 (CD8α-Fc fusion protein [1]): 4.59 ng/mL
Positive rate (%) [2]: 99.4%
Relative activity (%) (CD8α-Fc fusion protein [3]): 47.9%

B9: C27-cHis antibody (VHH)
VHH: QLQLVESGGGLVQPGGSLRLSCVVSGSIFAINTMGWYRQAPGKQRELVATMHSGGSTNYADSVKGRFTISRDAAPKTVYLQMNSLKPADTAVYYCHADDSGWGTVDSWGQGIQVTVSS
notes: as for B7
EC50 (CD8α-Fc fusion protein [1]): 2.28 ng/mL
Positive rate (%) [2]: 93.6%
Relative activity (%) (CD8α-Fc fusion protein [3]): 96.4%

B10: C42-cHis antibody (VHH)
VHH: QVQLVESGGGLVQAGGSLRLSCAASGLTFEDYAIGWFRQAPGKEREGISCIRIYDGNTYSAESVKGRFTISSDNAKNQVYLQINTLKPEDTAVYYCAAGSYYSCSVYPDYDMDYWGKGTLVTVSS
notes: HEK293 construct; an E. coli preparation is also described; Biotinylated for the ForteBio assay; also called SNA006b; SNA006-b
EC50 (CD8α-Fc fusion protein [1]): 1.18 ng/mL
Positive rate (%) [2]: 99.9%
Relative activity (%) (CD8α-Fc fusion protein [3]): 269%
Kd (CD8α-cHis fusion protein): 0.727 nM
koff (CD8α-cHis fusion protein): 0.00042 s⁻¹
kon (CD8α-cHis fusion protein): 578000 M⁻¹ s⁻¹

B13: C2-cHis antibody (VHH)
VHH: QVQLVESGGGLVQPGGSLRLSCAASGFTLDYYAIGWFRQAPGKEREGISCIRIYDGNTYSAESVKGRFTISSDNAKNQVYLQINTLKPEDTAVYYCAAGSYYSCSVYPDYDMDYWGKGTLVTVSS
notes: HEK293 construct; An E. coli (PET22b) preparation is also described
EC50 (CD8α-Fc fusion protein [1]): 2.2 ng/mL and 3.18 ng/mL and 4.11 ng/mL
Positive rate (%) [2]: 99.9%
Relative activity (%) (CD8α-Fc fusion protein [8]): 100%

B14: C29-cHis antibody (VHH)
VHH: QVQLVESGGGLVQAGGSLRLSCVASGFTSDDYVIGWFRQAPGKEREGVSCISSSDGTTNYADSVKGRFTISSDNAKNTVYLQMNSLKPEDTAVYYCAADPMRVCPYSGTYYGILGFGTSGQGTQVTVSS
notes: as for B7
EC50 (CD8α-Fc fusion protein [1]): 3.55 ng/mL
Positive rate (%) [2]: 98.4%
Relative activity (%) (CD8α-Fc fusion protein [3]): 61.9%

B15: S36-cHis antibody (VHH)
VHH: QVQLVESGGGLVQAGGSLRLSCAASIRTFSDYAMAWFRQGPRKEREFVAAISWNGVTTFYADSVKGRFTISRDDAKNSVYLQMNSLKPEDTAVYYCAGGLNVGWGTHEREYDDWGQGTQVTVSS
notes: as for B7
EC50 (CD8α-Fc fusion protein [1]): 1.42 ng/mL
Positive rate (%) [2]: 99.7%
Relative activity (%) (CD8α-Fc fusion protein [3]): 289%
